Reference: patent US20220267442A1

Target: TGFβ1 (human) (UniProt P01137)
Experiment: SPR

Sequence of TGFβ1 (human) (P01137 279-390): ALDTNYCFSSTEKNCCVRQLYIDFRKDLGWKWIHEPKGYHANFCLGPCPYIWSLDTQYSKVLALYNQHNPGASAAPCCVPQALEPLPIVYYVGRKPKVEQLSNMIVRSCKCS

- Kd: 26.6 nM
Substance: αTGF-β (1D11)
